We go through one substance from article PMC2799420.

The experiment addresses Lyngbya majuscula JHB protein 7968 (Lyngbya majuscula JHB). As to the kind of experiment: PAGE analysis; kind of PAGE (native or SDS) and conditions not told; mentioned only in the discussion.

In general, stoichiometry N refers to a count of units in the complex or per binding partner. “Lyngbya majuscula JHB protein 7968 (natural protein)” returned a stoichiometry N of 2.
